Results on one molecule are retold here after patent US9228015B2, “Nogo receptor antagonists and methods of increasing neurite outgrowth” (Biogen Idec MA Inc., priority 2006, dated 2016).

Assay [1] relates to DRG neurons, myelin-mediated inhibition of neurite outgrowth. The assay is described as follows: Neurite outgrowth assay, P3-4 rat DRG neurons, myelin mixed with test protein (Example 10). It is filed as cell-based. Particulars: mixed with CNS myelin, FIGS. 9-11. Here is the method:
Lab-Tek® culture slides (4 wells) were coated with 0.1 mg/ml poly-D-lysine (Sigma®). CNS myelin alone or mixed with sNogoR310, sNogoR310-Fc fusion protein, mAb 5B10 or control PBS were separately spotted as 3 μl drops. Fluorescent microspheres (Polysciences) were added to the myelin/PBS to allow later identification of the drops (Grandpre et al., Nature 403:439-444 (2000)). Lab-Tek® slides were then rinsed and coated with 10 μg/ml laminin (Gibco™).
Dorsal root ganglions (DRG's) from P3-4 Sprague Dawley rat pups were dissociated with 1 mg/ml collagenase type 1 (Worthington), triturated with fire-polished Pasteur pipettes pre-plated to enrich in neuronal cells and finally plated at 23,000 cells/well on the pre-coated Labtek culture slides. The culture medium was F12 containing 5% heat inactivated donor horse serum, 5% heat inactivated fetal bovine serum and 50 ng/ml mNGF and incubated at 37° C. and 5% CO2 for 6 hours.
Slides were fixed for 20 minutes with 4% paraformaldehyde containing 20% sucrose and stained for the neuronal marker anti beta-III-tubulin (Covance TUJ1) diluted 1:500. As secondary antibody anti-mouse Alexa Fluor® 594 (Molecular Probes) was diluted 1:300 and slides were coverslipped with Gel/Mount™ (Biømeda™). 5× digital images were acquired with OpenLab™ software and analyzed by using the MetaMorph® software for quantification of neurite outgrowth.

Assay [2] relates to rats with mid-thoracic dorsal hemisection injury. Nature of the assay: Intrathecal sNogoR310-Fc in rats with mid-thoracic dorsal hemisection: axon tracing and histology. The assay is classed as in vivo, rat. From the text:
We isolated spinal cord 4 mm rostral to and 4 mm caudal to the lesion site (8 mm long in total) from transgenic mice and embedded it in a glutaraldehyde-polymerized albumin matrix, and cut parasagittally on a vibratome (30 μm thick). We collected transverse sections (50 μm) from the spinal cord 5-7 mm rostral to and 5-7 mm caudal to the injury site. For sNogoR310-Fc injection experiments in rats, the spinal cord extending from 10 mm rostral to 10 mm caudal from the lesion site was cut parasaggitally (50 μm) on a vibrating microtome. Transverse sections were collected from the spinal cord 11-16 mm rostral to and 11-16 mm caudal to the injury site. We incubated the sections with avidin-biotin-peroxidase complex and visualized the BDA tracer by nickel-enhanced diaminobenzidine HRP reaction (Grandpre, Nature 417:547-551 (2002)). We processed some sections for serotonin immunohistochemistry (anti-5-HT antibody) by indirect immunofluorescence. To visualize the lesion area, we double-stained some sections with antibodies directed against GFAP (Sigma®, St. Louis, Mo.). We mounted, dehydrated and covered the sections with mounting medium.
We fused the ligand binding domain (27-310) of rat Nogo receptor-1 to the rat IgG1 Fc domain to promote stability and purification. We purified protein from stably transfected CHO cells. This protein blocks Nogo-66, MAG and myelin action in vitro, as shown previously for mouse sNogoR310-Myc His (Fournier et al., J Neurosci. 22:8876-8883 (2002); Liu et al., Science 297:1190-1193 (2002)). We delived sNogoR310-Fc protein intrathecally to rats with a mid-thoracic dorsal hemisection injury through an osmotic minipump. During a four-week survival period after injury, 1.2 mg sNogoR310-Fc protein was locally administered in each rat. In rats receiving the vehicle treatment (1.2 mg rat IgG), sections rostral to hemisection display the tightly bundled prominent dorsal CST and very few ectopic BDA-labeled CST fibers above the lesion site. […] Numerous ectopic fibers sprouting from the BDA-labeled CST are observed from transverse and parasagittal sections. In some cases, projections cross from the dCST area near the midline to the circumference of the cord, becoming intermingled with the dorsolateral CST. The sprouting axons extend though gray matter to a greater extent than white matter.
(§1) We deeply anaesthetized female Sprague-Dawley rats (190-250 g) and conducted laminectomies at spinal levels of T6-7, exposing the spinal cord. We cut the dorsal half of the spinal cord with a 30-gauge needle and a pair of microscissors to sever the dorsal parts of CSGT tracts, and assured the depth of the lesion (1.8 mm) by passing the sharp part of a number 11 blade across the dorsal half of the cord (Grandpre et al., Nature 417:547-551 (2002)). An osmotic minipump (Alzet® 2ML4, 2 ml volume, 2.5 μl/h, 28 day delivery), which was filled with 1.2 mg rat IgG in PBS or 1.2 mg sNogoR310-Fc fusion protein in PBS, was sutured to muscles under the skin on the back of the animals. A catheter connected to the outlet of the minipump was inserted into the intrathecal space of the spinal cord at the T7-8 level through a small hole in the dura.
Fourteen days after hemisection, a burr hole was made on each side of the skull overlying the sensorimotor cortex of the lower limbs to trace CST fibers. The anterograde neuronal tracer BDA (10% in PBS, 3.5 μl per cortex) was applied at seven injection sites at a depth of 1.5 mm from dura on each side (Grandpre et al., Nature 417:547-551 (2002)). For rubrospinal tract tracing in rats, the tracer BDA (1 μl; MW 10,000; 10% in PBS) was injected into red nucleus on the left side (5.8 mm posterior to bregma, 0.7 mm lateral, 7.0 mm ventral to the skull surface). Two weeks after BDA injection, these animals were perfused with PBS, followed by 4% paraformaldehyde, and tissue was collected for histology.

The test system is the same in assay [3]. The assay is described as follows: Intrathecal sNogoR310-Fc in rats with dorsal hemisection: behavioral tests. The assay is classed as in vivo, rat.
Description: The Basso-Beattie-Bresnahan (BBB) locomotor rating scale (Basso et al., Neurotrauma 13:343-359 (1996)), the inclined plane test and the inclined grid walking test (Li and Strittmatter, J Neurosci. 23:4219-27 (2003)) were monitored in rats and mice after injury. For the inclined plane test, we measured the maximal angle to which a 50 cm×60 cm board could be angled for 5 sec without the mouse sliding off. For inclined grid walking, the mice were trained to climb a wire grid (35 cm long with 2.54 cm squares) at a slope of 45 degrees. The number of instances in which the hindpaw dropped below the grid plane was scored for each excursion from bottom to top. For the rat behavioral testing, BBB locomotor scale, grid walking and footprint analysis were performed. For grid walking, the rats were trained to walk on a wire grid (70 cm long with 2.54 an squares), and the number of instances in which the hindpaw dropped below the grid plane was counted. For footprint analysis, the walking patterns of rat hindpaws were recorded with ink during a continuous locomotion across a 90 cm runway, and stride length on each side and stride width were calculated (Metz et al., Brain Res. 883:165-177 (2000)). All of these behavioral tests were performed by at least two individuals. Throughout the surgery, behavioral testing and histologic analysis, researchers were blind to the identity of the compound in the minipump.
as §1, with “A catheter connected to the outlet of the minipump was inserted into the intrathecal space of the spinal cord at the T7-8 level through a small hole in the dura.” left out

Assay [4] relates to Nogo-66, MAG and myelin action. The assay is described as follows: Blockade of Nogo-66, MAG and myelin action in vitro.
The subject of assay [5] is rats with dorsal hemisection of the spinal cord. The assay is described as follows: Rat spinal cord transection assay (Example 12). The settings on record: intrathecal pump, up to 28 days, FIG. 12. The assay is classed as in vivo. Here is the method:
Alzet® osmotic pumps were loaded with test solution (sNogoR310-Fc in PBS) made up freshly on the day of use. The loading concentration was calculated to be 5 and 50 μM. Pumps were primed for >40 hours at 37° C. prior to implantation into animals. Female Long Evans rats were given pre-operative analgesia and tranquilizer and anesthetized using isoflurane (3% in O2).
Rats were placed in a stereotaxic frame and the motor cortex exposed for infusion of the tract tracing agent BDA (10,000 MW) bilaterally. Rats then underwent dorsal hemisection of the spinal cord at TS-T6 followed by implantation of the intrathecal catheter and pump system to deliver test compound (n=1 per group).
Rats were allowed to recover and survive up to 28 days after surgery. Behavioral scoring using the BBB system was recorded up to 28 days after induction of injury, just prior to termination of the in-life phase of the study. […]
The Basso-Beattie-Bresnahan (BBB) locomotor rating scale (Basso et al., Neurotrauma 13:343-359 (1996)), the inclined plane test and the inclined grid walking test (Li and Strittmatter, J Neurosci. 23:4219-27 (2003)) were monitored in rats and mice after injury. For the inclined plane test, we measured the maximal angle to which a 50 cm×60 cm board could be angled for 5 sec without the mouse sliding off. […]

B1: sNogoR310-Fc: fusion protein comprising amino acids 26-310 of rat Nogo receptor-1 and a rat Fc fragment (protein)
chain: PCPGACVCYNEPKVTTSRPQQGLQAVPAGIPASSQRIFLHGNRISYVPAASFQSCRNLTILWLHSNALAGIDAAAFTGLTLLEQLDLSDNAQLRVVDPTTFRGLGHLHTLHLDRCGLQELGPGLFRGLAALQYLYLQDNNLQALPDNTFRDLGNLTHLFLHGNRIPSVPEHAFRGLHSLDRLLLHQNHVARVHPHAFRDLGRLMTLYLFANNLSMLPAEVLVPLRSLQYLRLNDNPWVCDCRARPLWAWLQKFRGSSSGVPSNLPQRLAGRDLKRLATSDLEGCA
modifications: left off: a dimerising Fc or GST
notes: fusion protein comprising amino acids 26-310 of rat Nogo receptor-1 and a rat Fc fragment
Consider B1, for which the “protection of DRG neurons from myelin-mediated inhibition of neurite outgrowth” value in assay [1] was “protected”. Also, the “BDA-labeled axons from sagittal sections” value in assay [2] (1-2 mm caudal to lesion, each rat) is on record as “approximately 20”. Moreover, the number of sprouts in assay [2] (1-10 mm caudal) is about 50 sprouts/rat. The “traced axons from sagittal sections” value in assay [2] (7-8 mm distal to lesion, each rat) was about 15. Further, the “serotonin fibers relative to control group” value in assay [2] (11-15 mm below the lesion) is given as “twice as numerous”. In addition, the “density of serotonergic fibers vs vehicle” value in assay [2] (11-15 mm rostral to lesion) is “similar”. For the same molecule, the “total collateral length of each sprout relative to NEP 1-40-treated animals” value in assay [2] (distal spinal cord) is “twice as great”. For the same molecule, the “ectopic sprouting fibers adjacent to the dCST” value in assay [2] (rostral to lesion, 1.2 mg intrathecal over four weeks) is “greater increase”. In addition, in assay [2] (transverse sections 11-15 mm caudal to hemisection), the “average number of BDA-labeled CST fibers relative to vehicle-treated rats” value was “approximately 20 fold”. The “BDA-labeled RST fibers” value in assay [2] (transverse sections 11-15 mm distal to SCI) is given as “many BDA-labeled RST fibers”. Moreover, the grid walking errors in assay [3] (2-4 weeks post-injury, on average) is 4-7 /session. The “locomotor BBB score” value in assay [3] (2-4 weeks post-trauma) is given as “continues to improve”. For the same molecule, in assay [3] (4 weeks after injury, 9 treated animals), the “animals with consistent forelimb-hindlimb coordination and parallel paw position” value was determined as 9. Further, the “blocks Nogo-66, MAG and myelin action in vitro” value in assay [4] was “blocks”. Also, the “functional recovery (BBB score)” value in assay [5] is reported as “promoted functional recovery”.
